In patent US8853367:

Molecular target: chimeric receptor comprising mouse TNFR1 external domain (AA 1 to AA 210) linked to the transmembrane and intracellular domains of mouse RANK (AA 210 to AA 625) (mouse)
Assay: cell-based or functional assay

chimeric receptor comprising mouse TNFR1 external domain (AA 1 to AA 210) linked to the transmembrane and intracellular domains of mouse RANK (AA 210 to AA 625) (mouse), sequence (chain, as listed by the source mutant): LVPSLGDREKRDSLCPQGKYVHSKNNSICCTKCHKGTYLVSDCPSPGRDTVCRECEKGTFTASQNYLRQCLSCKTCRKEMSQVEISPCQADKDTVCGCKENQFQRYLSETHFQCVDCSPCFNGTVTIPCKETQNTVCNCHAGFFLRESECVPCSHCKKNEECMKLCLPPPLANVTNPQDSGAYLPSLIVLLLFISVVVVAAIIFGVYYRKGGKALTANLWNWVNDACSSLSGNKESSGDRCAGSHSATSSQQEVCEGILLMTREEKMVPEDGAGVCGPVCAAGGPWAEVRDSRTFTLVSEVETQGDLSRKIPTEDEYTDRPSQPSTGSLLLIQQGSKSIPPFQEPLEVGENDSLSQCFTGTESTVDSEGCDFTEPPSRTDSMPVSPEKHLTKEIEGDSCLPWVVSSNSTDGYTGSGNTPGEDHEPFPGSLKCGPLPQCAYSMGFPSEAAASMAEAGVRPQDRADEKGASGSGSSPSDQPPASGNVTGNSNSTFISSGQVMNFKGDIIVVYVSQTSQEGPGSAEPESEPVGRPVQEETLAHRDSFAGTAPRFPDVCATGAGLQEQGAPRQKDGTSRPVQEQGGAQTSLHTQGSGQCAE

Q: How did the osteoclast formation, lowest TNFα concentration still active turn out when “Recombinant mouse TNFα (410-TRNC-050, R&D Systems) (from UniProt P06804 84-235) (ligand)” was run?
A: 1 ng/mL
